Reference: paper doi:10.1101/2021.03.19.436211 (bioRxiv, 2021)

What was measured:
[1] = molecular target: the molecule itself; test: crystal structure
[2] = molecular target: the molecule itself; test: SEC-MALS
[3] = molecular target: the molecule itself; test: SEC

B1: mouse lipin 2 M-Lip^xtal domain (domain or fragment, UniProt Q99PI5 459-549, looked up)
chain: SAMDLPDVTLSLCGGLSENGEISKEKFMEHIITYHEFAENPGLIDNPNLVIRIYNRYYNWALAAPMILSLQVFQKSLPKATVESWVKDKMP
B1: binds [1].

B2: mouse lipin 1 M-Lip^xtal domain (as used for SEC-MALS) (domain or fragment, UniProt Q91ZP3-2 458-548, looked up)
chain: SLRDLPSIAISLCGGLSDHREITKDAFLEQAVSYQQFADNPAIIDDPNLVVKVGNKYYNWTTAAPLLLAMQAFQKPLPKATVESIMRDKMP
In the case of B2, the “stoichiometry N” value [2] is reported as 2.

B3: full-length mouse lipin 1α (purified from Sf9 cells) (enzyme, UniProt Q91ZP3-2 1-891, looked up)
chain: MNYVGQLAGQVFVTVKELYKGLNPATLSGCIDIIVIRQPNGSLQCSPFHVRFGKMGVLRSREKVVDIEINGESVDLHMKLGDNGEAFFVQETDNDQEIIPMYLATSPILSEGAARMESQLKRNSVDRIRCLDPTTAAQGLPPSDTPSTGSLGKKRRKRRRKAQLDNLKRDDNVNSSEDEDMFPIEMSSDEDTAPMDGSRTLPNDVPPFQDDIPKENFPSISTHPQSASYPSSDREWSPSPSPSGSRPSTPKSDSELVSKSADRLTPKNNLEMLWLWGELPQAAKSSSPHKMKESSPLGSRKTPDKMNFQAIHSESSDTFSDQSPTMARGLLIHQSKAQTEMQFVNEEDLESLGAAAPPSPVAEELKAPYPNTAQSSSKTDSPSRKKDKRSRHLGADGVYLDDLTDMDPEVAALYFPKNGDPGGLPKQASDNGARSANQSPQSVGGSGIDSGVESTSDSLRDLPSIAISLCGGLSDHREITKDAFLEQAVSYQQFADNPAIIDDPNLVVKVGNKYYNWTTAAPLLLAMQAFQKPLPKATVESIMRDKMPKKGGRWWFSWRGRNATIKEESKPEQCLTGKGHNTGEQPAQLGLATRIKHESSSSDEEHAAAKPSGSSHLSLLSNVSYKKTLRLTSEQLKSLKLKNGPNDVVFSVTTQYQGTCRCEGTIYLWNWDDKVIISDIDGTITRSDTLGHILPTLGKDWTHQGIAKLYHKVSQNGYKFLYCSARAIGMADMTRGYLHWVNERGTVLPQGPLLLSPSSLFSALHREVIEKKPEKFKVQCLTDIKNLFFPNTEPFYAAFGNRPADVYSYKQVGVSLNRIFTVNPKGELVQEHAKTNISSYVRLCEVVDHVFPLLKRSHSCDFPCSDTFSNFTFWREPLPPFENQDMHSASA
B3: binds [3].
